Measurements from patent publication US9783610B2.
Several values for one entry are separate records, joined by “and”; a condition that tells them apart may be missing. Identical values can stand only once. Like-named read-outs stand apart in the source and are kept apart here. Each block holds one molecule with its values, some of them ahead of it.

Legend:
[1] = biological target: human TEM1 (endosialin, CD248) on cells (human) (UniProt Q9HCU0); assay: live cell-based ELISA, binding to MS1-TEM1 minus binding to MS1 cells; positive control
[2] = biological target: T1, human TEM1 recombinant protein fused to GST (rhTEM1-GST) (human) (UniProt Q9HCU0); assay: ELISA on plate-coated rhTEM1-GST, KD=2[Ab']t-[Ab]t
T1 sequence: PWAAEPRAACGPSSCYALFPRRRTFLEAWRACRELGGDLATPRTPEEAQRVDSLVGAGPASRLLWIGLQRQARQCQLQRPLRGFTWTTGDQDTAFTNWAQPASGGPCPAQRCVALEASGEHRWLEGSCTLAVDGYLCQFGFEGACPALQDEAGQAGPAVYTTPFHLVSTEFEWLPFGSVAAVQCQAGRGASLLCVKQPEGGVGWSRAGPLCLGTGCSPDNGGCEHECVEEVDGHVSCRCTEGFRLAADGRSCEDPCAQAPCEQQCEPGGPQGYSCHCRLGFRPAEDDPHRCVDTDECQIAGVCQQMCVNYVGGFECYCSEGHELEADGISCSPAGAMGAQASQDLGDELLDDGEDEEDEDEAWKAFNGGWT

[3] = biological target: T1, human TEM1 recombinant protein fused to GST (rhTEM1-GST) (human); assay: ELISA on plate-coated rhTEM1-GST, KD=2[Ab']t-[Ab]t; remark: listed apart in the source
[4] = biological target: human TEM1 (endosialin, CD248) on cells (human) (UniProt Q9HCU0); assay: live cell-based ELISA, binding to MS1-TEM1 minus binding to MS1 cells, HA-HRP detection
[5] = biological target: human TEM1 (endosialin, CD248) on cells (human) (UniProt Q9HCU0); assay: live cell-based ELISA on MS1-TEM1 cells; reference scFv78

Kd [1]: 0.27 nM
Molecule: MORAB004 antibody (Morphotek, Inc)

Kd [2]: 4.3 nM
Kd [3]: 5.8 nM and 4.5 nM and 2.8 nM
B1: scFv-78 (scFv)
scFv: VQPVLTQPPSLSASPGASASLTCTLRSDINVGSYRISWYQQKPGSPPQYLLSYISDSDKQKGSGVPSRFSGSKDASANAGILLISGLQSEDEADYYCMIWHNSAGVFGGGTKLTVLGGGSSRSSSSGGGGSGGGGQVQLQESGGTLVQPGGSLRLSCEASGFTFSNYAMGWVRQTPGKGLEWLSAIRKSGTTTYYADSVKGRFIISRDNSKNTLYLQMNRLRVGDTATYYCATHPIAGYWGQGTLVTVSSASTKGPS

Kd [4]: 2.08 nM
B2: scFv78 (expressed in 293F cells, purified on anti-HA beads) (scFv)
scFv: B1 scFv

fold lower KD than scFv78 [5]: 5 fold
Kd [4]: 0.34 nM
B3: Anti-TEM1 scFv78-CH3 (protein)
chain: VQPVLTQPPSLSASPGASASLTCTLRSDINVGSYRISWYQQKPGSPPQYLLSYISDSDKQKGSGVPSRFSGSKDASANAGILLISGLQSEDEADYYCMIWHNSAGVFGGGTKLTVLGGGSSRSSSSGGGGSGGGGQVQLQESGGTLVQPGGSLRLSCEASGFTFSNYAMGWVRQTPGKGLEWLSAIRKSGTTTYYADSVKGRFIISRDNSKNTLYLQMNRLRVGDTATYYCATHPIAGYWGQGTLVTVSSASTKGPSVGGGSLIKDKTHTCPPCPSKAKGQPREPQVYTLPPSREEMTKNQVSLTCLVKGFYPSDIAVEWESNGQPENNYKTTPPVLDSDGSFFLYSKLTVDKSRWQQGNVFSCSVMHEALHNHYTQKSLSLSPGK

fold lower KD than scFv78 [5]: 5 fold
Kd [4]: 0.45 nM
B4: Anti-TEM1 scFv78-minibody (scFv)
chain: VQPVLTQPPSLSASPGASASLTCTLRSDINVGSYRISWYQQKPGSPPQYLLSYISDSDKQKGSGVPSRFSGSKDASANAGILLISGLQSEDEADYYCMIWHNSAGVFGGGTKLTVLGGGSSRSSSSGGGGSGGGGQVQLQESGGTLVQPGGSLRLSCEASGFTFSNYAMGWVRQTPGKGLEWLSAIRKSGTTTYYADSVKGRFIISRDNSKNTLYLQMNRLRVGDTATYYCATHPIAGYWGQGTLVTVSSASTKGPSVGGGSLIKDKTHTCPPCPAPEL
